Measurements published in US20140087995A1 (published 2014).
Numbered stars: 1 amine (or outer) side, 2 acyl side, 3 side chain; on linkers, the order of the positions; unused ones are H or OH. Bridge positions count the residues as written; N and C are the ends. Side chains are listed from the residue outwards. Ends that are not written are not given here. * marks the point of attachment. C20 diacid = O=C(O)CCCCCCCCCCCCCCCCCCC(=O)*; γGlu = O=C(O)[C@H](CCC(=O)[*:2])N[*:1]

Tests used:
[1] = target: T1, human amylin 3(a) receptor (human calcitonin receptor plus RAMP-3) (human, UniProt P30988 25-474; O60896 24-148, limits assumed); experiment: SPA competition binding, displacement of 125I-rat amylin from membranes of Amylin 3(a)/CRE-luc BHK cells (Assay V)
T1 construct: whole, on cells; Whole cells in the luciferase assay (Assay II a); also called hAmylin-R; human amylin receptor
T1 sequence (looked up) 1: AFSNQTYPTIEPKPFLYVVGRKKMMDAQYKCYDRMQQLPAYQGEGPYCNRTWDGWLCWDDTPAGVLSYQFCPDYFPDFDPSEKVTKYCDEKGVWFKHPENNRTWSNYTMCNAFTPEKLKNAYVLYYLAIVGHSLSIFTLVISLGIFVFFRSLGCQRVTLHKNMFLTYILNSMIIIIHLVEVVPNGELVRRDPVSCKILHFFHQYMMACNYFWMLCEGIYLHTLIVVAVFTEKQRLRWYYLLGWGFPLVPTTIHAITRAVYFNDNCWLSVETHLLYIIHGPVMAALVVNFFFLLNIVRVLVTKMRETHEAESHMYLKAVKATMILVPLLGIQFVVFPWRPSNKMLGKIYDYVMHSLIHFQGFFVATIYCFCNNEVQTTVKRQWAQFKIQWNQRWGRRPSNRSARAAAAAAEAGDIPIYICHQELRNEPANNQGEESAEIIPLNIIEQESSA
T1 sequence (looked up) 2: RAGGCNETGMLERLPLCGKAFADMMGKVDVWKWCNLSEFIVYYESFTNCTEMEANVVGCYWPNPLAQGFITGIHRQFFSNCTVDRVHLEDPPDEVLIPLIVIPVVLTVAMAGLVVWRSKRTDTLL
Method in brief: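 One-site competition analysis of SPA counts yielded IC₅₀ as a measure of affinity. Membranes were at 35 ng/μL final; incubation was 120 min at 25° C, pH 7.4.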

[2] = target: T1, human amylin 3(a) receptor (human …); experiment: cell-based or functional assay
[3] = target: T2, human calcitonin receptor (human, UniProt P30988 25-474); experiment: cell-based or functional assay
T2 sequence (looked up): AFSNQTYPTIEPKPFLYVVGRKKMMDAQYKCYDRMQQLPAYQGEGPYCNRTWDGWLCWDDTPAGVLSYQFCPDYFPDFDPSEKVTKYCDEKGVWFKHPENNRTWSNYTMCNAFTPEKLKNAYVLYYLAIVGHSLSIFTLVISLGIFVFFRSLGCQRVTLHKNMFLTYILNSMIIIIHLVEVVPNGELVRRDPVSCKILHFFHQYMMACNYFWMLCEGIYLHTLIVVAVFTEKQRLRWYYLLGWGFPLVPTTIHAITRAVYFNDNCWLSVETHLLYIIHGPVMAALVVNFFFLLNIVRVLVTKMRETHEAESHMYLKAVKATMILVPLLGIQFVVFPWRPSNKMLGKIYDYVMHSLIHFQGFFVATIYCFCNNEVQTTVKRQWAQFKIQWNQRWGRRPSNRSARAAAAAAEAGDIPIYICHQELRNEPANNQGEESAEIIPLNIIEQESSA

B1: N^ε1-[(4S)-4-carboxy-4-[[(4S)-4-carboxy-4-(19-carboxynonadecanoylamino)butanoyl]amino]butanoyl]-[Glu14,Arg17,Pro21,Pro27,Arg35]-h-amylin (peptide)
peptide: K([γGlu-γGlu-C20 diacid])CNTATCATQRLAEFLRHSSPNFGAIPSSTNVGSRTY-NH2
modifications: disulfide 2-7; N-terminus assumed
SMILES: CC[C@H](C)[C@H](NC(=O)[C@H](C)NC(=O)CNC(=O)[C@H](Cc1ccccc1)NC(=O)[C@H](CC(N)=O)NC(=O)[C@@H]1CCCN1C(=O)[C@H](CO)NC(=O)[C@H](CO)NC(=O)[C@H](Cc1c[nH]cn1)NC(=O)[C@H](CCCNC(=N)N)NC(=O)[C@H](CC(C)C)NC(=O)[C@H](Cc1ccccc1)NC(=O)[C@H](CCC(=O)O)NC(=O)[C@H](C)NC(=O)[C@H](CC(C)C)NC(=O)[C@H](CCCNC(=N)N)NC(=O)[C@H](CCC(N)=O)NC(=O)[C@@H](NC(=O)[C@H](C)NC(=O)[C@@H]1CSSC[C@H](NC(=O)[C@@H](N)CCCCNC(=O)CC[C@H](NC(=O)CC[C@H](NC(=O)CCCCCCCCCCCCCCCCCCC(=O)O)C(=O)O)C(=O)O)C(=O)N[C@@H](CC(N)=O)C(=O)N[C@@H]([C@@H](C)O)C(=O)N[C@@H](C)C(=O)N[C@@H]([C@@H](C)O)C(=O)N1)[C@@H](C)O)C(=O)N1CCC[C@H]1C(=O)N[C@@H](CO)C(=O)N[C@@H](CO)C(=O)N[C@H](C(=O)N[C@@H](CC(N)=O)C(=O)N[C@H](C(=O)NCC(=O)N[C@@H](CO)C(=O)N[C@@H](CCCNC(=N)N)C(=O)N[C@H](C(=O)N[C@@H](Cc1ccc(O)cc1)C(N)=O)[C@@H](C)O)C(C)C)[C@@H](C)O
notes: also called compound 89
[1]
  IC50: 1.16 nM
[2]
  Ratio hCT/hAmylin funct.: 27.8
  hAmylin-R funct. EC50: 0.404 nM
[3]
  hCTR funct. EC50: 11.2 nM

B2: N^ε1-[(4S)-4-carboxy-4-[[(4S)-4-carboxy-4-(19-carboxynonadecanoylamino)butanoyl]amino]butanoyl]-[Glu14,Arg17,Pro21,Pro27,His34,Glu35]-h-amylin (peptide)
peptide: K([γGlu-γGlu-C20 diacid])CNTATCATQRLAEFLRHSSPNFGAIPSSTNVGHETY-NH2
modifications: disulfide 2-7; N-terminus assumed
SMILES: CC[C@H](C)[C@H](NC(=O)[C@H](C)NC(=O)CNC(=O)[C@H](Cc1ccccc1)NC(=O)[C@H](CC(N)=O)NC(=O)[C@@H]1CCCN1C(=O)[C@H](CO)NC(=O)[C@H](CO)NC(=O)[C@H](Cc1c[nH]cn1)NC(=O)[C@H](CCCNC(=N)N)NC(=O)[C@H](CC(C)C)NC(=O)[C@H](Cc1ccccc1)NC(=O)[C@H](CCC(=O)O)NC(=O)[C@H](C)NC(=O)[C@H](CC(C)C)NC(=O)[C@H](CCCNC(=N)N)NC(=O)[C@H](CCC(N)=O)NC(=O)[C@@H](NC(=O)[C@H](C)NC(=O)[C@@H]1CSSC[C@H](NC(=O)[C@@H](N)CCCCNC(=O)CC[C@H](NC(=O)CC[C@H](NC(=O)CCCCCCCCCCCCCCCCCCC(=O)O)C(=O)O)C(=O)O)C(=O)N[C@@H](CC(N)=O)C(=O)N[C@@H]([C@@H](C)O)C(=O)N[C@@H](C)C(=O)N[C@@H]([C@@H](C)O)C(=O)N1)[C@@H](C)O)C(=O)N1CCC[C@H]1C(=O)N[C@@H](CO)C(=O)N[C@@H](CO)C(=O)N[C@H](C(=O)N[C@@H](CC(N)=O)C(=O)N[C@H](C(=O)NCC(=O)N[C@@H](Cc1c[nH]cn1)C(=O)N[C@@H](CCC(=O)O)C(=O)N[C@H](C(=O)N[C@@H](Cc1ccc(O)cc1)C(N)=O)[C@@H](C)O)C(C)C)[C@@H](C)O
[1]
  IC50: 0.525 nM
[2]
  hAmylin-R funct. EC50: 0.445 nM
[3]
  hCTR funct. EC50: 7.05 nM
